Source: paper PMC9100253 (International Journal of Molecular Sciences, 2022)

Assays:
CTX-M-15 [1] = target: T1, CTX-M-15 (Escherichia coli, UniProt A0A5R8T042); experiment: inhibition of ceftiofur hydrolysis, absorbance; format: biochemical
T1 construct: gene bla; blaCTX-M-15 in pET200 TOPO, E. coli BL21(DE3); DEAE and hydroxyapatite purification; three molecules per asymmetric unit

CTX-M-15 [2] = target: T2, CTX-M-15 (Escherichia coli, UniProt A0A5R8T042, S73A); experiment: biochemical
T2 construct: gene bla

[3] = system: CC1(C)S[C@@H]2[C@H](NC(=O)[C@H](N)c3ccccc3)C(=O)N2[C@H]1C(=O)O; experiment: purified protein; format: biochemical, Escherichia coli; details: PBS pH 7.4, 10 nM enzyme, acyl-enzyme structure, covalent
[4] = system: CO/N=C(\C(=O)N[C@@H]1C(=O)N2C(C(=O)O)=C(CS)CS[C@H]12)c1csc(N)n1; experiment: purified protein; format: biochemical, Escherichia coli; details: PBS pH 7.4, 10 nM enzyme, acyl-enzyme structure, covalent
[5] = system: CO/N=C(\C(=O)N[C@@H]1C(=O)N2C(C(=O)O)=C(CSC(=O)c3ccco3)CS[C@H]12)c1csc(N)n1; experiment: purified protein; format: biochemical, Escherichia coli; details: PBS pH 7.4, 10 nM enzyme
[6] = system: O=C(Cc1cccs1)N[C@@H]1C(=O)N2C(C(=O)O)=C(/C=C/c3ccc([N+](=O)[O-])cc3[N+](=O)[O-])CS[C@H]12; experiment: purified protein; format: biochemical, Escherichia coli; details: PBS pH 7.4, 10 nM enzyme

O=C(O)[C@H]1/C(=C/CO)O[C@@H]2CC(=O)N21 [clavulanic acid]
Ki (CTX-M-15 [1]): 0.022 ± 0.007 µM | Kd (CTX-M-15 [2]): 289 µM

CC1(C)S[C@@H]2[C@H](NC(=O)[C@H](N)c3ccccc3)C(=O)N2[C@H]1C(=O)O [ampicillin]
Kd (CTX-M-15 [2]): 28.8 µM

CO/N=C(\C(=O)N[C@@H]1C(=O)N2C(C(=O)O)=C(CS)CS[C@H]12)c1csc(N)n1 [desfuroylceftiofur]
Kd (CTX-M-15 [2]): 10.7 µM

CO/N=C(\C(=O)N[C@@H]1C(=O)N2C(C(=O)O)=C(CSC(=O)c3ccco3)CS[C@H]12)c1csc(N)n1 [ceftiofur]
Kd (CTX-M-15 [2]): 38.2 µM

O=C(Cc1cccs1)N[C@@H]1C(=O)N2C(C(=O)O)=C(/C=C/c3ccc([N+](=O)[O-])cc3[N+](=O)[O-])CS[C@H]12 [nitrocefin]
Kd (CTX-M-15 [2]): 71.3 µM

CTX-M-15 (Escherichia coli O25b:H4)
Km [3]: 197.8 ± 13.0 µM | Vmax [3]: 60.6 µmol/min | kcat [3]: 102 ± 5.6 s⁻¹ | kcat/Km [3]: 520000 ± 10000 M⁻¹ s⁻¹ | Km [4]: 141.2 ± 11.2 µM | Vmax [4]: 293 µmol/min | kcat [4]: 490 ± 16.2 s⁻¹ | kcat/Km [4]: 3.46e+06 ± 140000 M⁻¹ s⁻¹ | Km [5]: 330.0 ± 14.1 µM | Vmax [5]: 188 µmol/min | kcat [5]: 314 ± 13 s⁻¹ | kcat/Km [5]: 950000 ± 10000 M⁻¹ s⁻¹ | Km [6]: 1047.0 ± 75.8 µM | Vmax [6]: 203 µmol/min
